Assay results reported in the supplement of paper PMC10065799, “High-throughput profiling of sequence recognition by tyrosine kinases and SH2 domains using bacterial peptide display” (eLife, 2023).

molecular target: Hck (UniProt P08631); assay: phosphorylation enrichment, bacterial display (enrichment ratio); higher = better substrate or ligand; peptides without Tyr show the background
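Also: 11-residue human phosphosite peptides and single-mutation variants displayed on the E. coli surface, counted by deep sequencing, each peptide's frequency after selection divided by its frequency in the unselected input library; frequency after pTyr selection over input frequency; kinase dosed for 20-30% of maximal phosphorylation in three min.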

Chain of Hck (P08631 whole entry, looked up): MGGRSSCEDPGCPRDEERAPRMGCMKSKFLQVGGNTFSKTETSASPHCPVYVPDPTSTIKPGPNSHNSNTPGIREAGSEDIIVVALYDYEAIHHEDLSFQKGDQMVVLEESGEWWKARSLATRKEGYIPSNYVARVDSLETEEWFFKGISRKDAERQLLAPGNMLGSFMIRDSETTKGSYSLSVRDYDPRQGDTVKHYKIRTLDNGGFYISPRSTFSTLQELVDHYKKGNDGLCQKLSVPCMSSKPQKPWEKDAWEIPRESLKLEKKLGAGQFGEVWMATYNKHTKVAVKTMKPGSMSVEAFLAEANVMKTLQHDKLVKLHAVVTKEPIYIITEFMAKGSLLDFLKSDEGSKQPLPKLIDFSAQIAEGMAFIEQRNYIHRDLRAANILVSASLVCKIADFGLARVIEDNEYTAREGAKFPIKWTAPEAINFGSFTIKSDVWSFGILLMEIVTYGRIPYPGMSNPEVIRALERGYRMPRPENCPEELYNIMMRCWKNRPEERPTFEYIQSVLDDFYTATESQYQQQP

Going from EVVGGYSVHNA [MLH1_Y183_R182G] to DLFRLYICVKE [ARID1B_Y1091_V1092I], the phosphorylation enrichment rises from 0.44 to 0.572.

Compared with ALHHPYGCDVE [ABL2_Y80_R78H], MSRDVYSIDYY [NTRK2_Y702_T704I] is higher in phosphorylation enrichment: 0.541 for the first, 4 for the second.

Going from KSDVMYTDWKK [ORM1_Y175_V174M] to PRLLRYLQLDF [ASB10_Y457], the phosphorylation enrichment falls from 2.03 to 0.65.

First: QRALLYEDALF [UNC13D_Y56_YF]
Second: IKKLIYVYLVI [JAGN1_Y42_H44Y]
The phosphorylation enrichment of the first is higher: 1.45 for the first, 0.43 for the second.

First: SEHLTYLEFKS [RASGRP1_Y215]
Second: SVCPDYDLCSV [SQSTM1_Y148]
The phosphorylation enrichment of the first is higher: 5.7 for the first, 0.678 for the second.

Going from ITVPAYFNDLQ [HSPA9_Y196_S200L] to IAKNPYDPPGR, the phosphorylation enrichment falls from 0.538 to 0.316.

Going from KPEKTYGLRKE [CEP43_Y267] to ASMAKYFASGI [ACADSB_Y372_E376G_YF], the phosphorylation enrichment falls from 0.503 to 0.404.

Compared with QGCGIYKDYYR [PLA2G2D_Y82_S80G], APQFTYAQGGQ [FLNA_Y1763_YF] is lower in phosphorylation enrichment: 3.57 for the first, 0.415 for the second.

Going from RRSQSYIPTSG [PLEKHA2_Y185] to SAEEDYKADAK [KCNT1_Y876_M877K], the phosphorylation enrichment rises from 0.473 to 0.536.

First: FSQNIYIQNRN [PKP2_Y631_YF]
Second: TRFDEYLEVTK [MAP1A_Y2217_H2214Y_YF]
The phosphorylation enrichment of the first is lower: 0.589 for the first, 0.619 for the second.

Compared with YEREQYADRAR [RBM4_Y355], LNWIYYKDQTG [RS1_Y166] is higher in phosphorylation enrichment: 0.439 for the first, 1.35 for the second.

Compared with YSTDCYRVGGH [NTRK2_Y707_Y706C], EAESWYQTKFE [KRT75_Y342_YF] is higher in phosphorylation enrichment: 0.45 for the first, 0.735 for the second.

Going from NTGDYYDLYGG [PTPN11_Y63] to VVFIKYLPEWT [PSEN1_Y240_L235V], the phosphorylation enrichment falls from 5.35 to 0.44.

First: GPGGDYAAMGA [ERBB3_Y1276]
Second: KQLFAYKMLMA [TMC2_Y209_YF]
The phosphorylation enrichment of the first is lower: 0.527 for the first, 0.566 for the second.

First: HDRNTYEKFLE [TF_Y666_G671E_YF]
Second: LDFNEYFRDLN [HPRT1_Y198_YF]
The phosphorylation enrichment of the first is higher: 0.491 for the first, 0.486 for the second.

Going from PEAALYGRFTI [FYN_Y440] to VNTTLYEKFTF [TEK_Y1108_YF], the phosphorylation enrichment falls from 6.52 to 4.13.

Work on DKPENYRRLDI [VHL_Y175_V170D] yielded a phosphorylation enrichment of 0.442.

molecular target: Jak2 (UniProt O60674); assay: as above
Sequence (O60674 whole entry, looked up): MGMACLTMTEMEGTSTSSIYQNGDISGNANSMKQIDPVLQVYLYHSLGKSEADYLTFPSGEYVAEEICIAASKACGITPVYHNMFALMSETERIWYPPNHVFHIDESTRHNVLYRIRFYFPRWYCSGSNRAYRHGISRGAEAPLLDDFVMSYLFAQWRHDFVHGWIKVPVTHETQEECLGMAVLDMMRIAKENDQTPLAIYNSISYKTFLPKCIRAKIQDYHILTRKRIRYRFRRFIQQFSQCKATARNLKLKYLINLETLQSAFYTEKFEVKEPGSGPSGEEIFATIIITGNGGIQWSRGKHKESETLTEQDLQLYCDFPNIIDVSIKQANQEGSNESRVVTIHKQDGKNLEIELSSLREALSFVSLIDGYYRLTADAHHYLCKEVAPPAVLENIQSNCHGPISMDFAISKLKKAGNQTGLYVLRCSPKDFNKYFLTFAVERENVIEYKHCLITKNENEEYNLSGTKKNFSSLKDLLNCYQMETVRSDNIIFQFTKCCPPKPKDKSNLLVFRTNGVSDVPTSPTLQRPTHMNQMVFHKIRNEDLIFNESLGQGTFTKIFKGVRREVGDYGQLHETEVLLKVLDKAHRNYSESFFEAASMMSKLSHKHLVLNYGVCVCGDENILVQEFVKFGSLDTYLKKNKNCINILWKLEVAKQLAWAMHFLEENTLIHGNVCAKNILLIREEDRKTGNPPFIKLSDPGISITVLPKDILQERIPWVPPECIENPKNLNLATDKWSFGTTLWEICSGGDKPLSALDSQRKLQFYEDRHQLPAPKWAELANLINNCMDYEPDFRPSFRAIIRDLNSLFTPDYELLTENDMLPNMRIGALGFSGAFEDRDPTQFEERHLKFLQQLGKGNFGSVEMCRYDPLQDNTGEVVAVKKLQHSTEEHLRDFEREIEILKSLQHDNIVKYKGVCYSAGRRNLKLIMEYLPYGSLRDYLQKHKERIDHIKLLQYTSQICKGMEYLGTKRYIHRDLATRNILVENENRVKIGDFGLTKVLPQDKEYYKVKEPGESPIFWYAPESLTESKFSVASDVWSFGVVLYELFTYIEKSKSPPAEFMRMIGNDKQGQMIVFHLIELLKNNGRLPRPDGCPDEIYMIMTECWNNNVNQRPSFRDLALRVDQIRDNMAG

Going from EVVGGYSVHNA [MLH1_Y183_R182G] to DLFRLYICVKE [ARID1B_Y1091_V1092I], the phosphorylation enrichment rises from 0.504 to 1.45.

Going from ALHHPYGCDVE [ABL2_Y80_R78H] to MSRDVYSIDYY [NTRK2_Y702_T704I], the phosphorylation enrichment rises from 0.708 to 0.825.

Compared with KSDVMYTDWKK [ORM1_Y175_V174M], PRLLRYLQLDF [ASB10_Y457] is higher in phosphorylation enrichment: 0.764 for the first, 1.53 for the second.

Compared with QRALLYEDALF [UNC13D_Y56_YF], IKKLIYVYLVI [JAGN1_Y42_H44Y] is lower in phosphorylation enrichment: 0.867 for the first, 0.817 for the second.

First: SEHLTYLEFKS [RASGRP1_Y215]
Second: SVCPDYDLCSV [SQSTM1_Y148]
The phosphorylation enrichment of the first is higher: 1.33 for the first, 1.3 for the second.

Compared with ITVPAYFNDLQ [HSPA9_Y196_S200L], IAKNPYDPPGR is lower in phosphorylation enrichment: 1.15 for the first, 0.635 for the second.

Going from KPEKTYGLRKE [CEP43_Y267] to ASMAKYFASGI [ACADSB_Y372_E376G_YF], the phosphorylation enrichment falls from 0.683 to 0.566.

First: QGCGIYKDYYR [PLA2G2D_Y82_S80G]
Second: APQFTYAQGGQ [FLNA_Y1763_YF]
The phosphorylation enrichment of the first is higher: 1.21 for the first, 0.42 for the second.

First: RRSQSYIPTSG [PLEKHA2_Y185]
Second: SAEEDYKADAK [KCNT1_Y876_M877K]
The phosphorylation enrichment of the first is lower: 0.649 for the first, 1.07 for the second.

Going from FSQNIYIQNRN [PKP2_Y631_YF] to TRFDEYLEVTK [MAP1A_Y2217_H2214Y_YF], the phosphorylation enrichment rises from 0.517 to 1.25.

Compared with YEREQYADRAR [RBM4_Y355], LNWIYYKDQTG [RS1_Y166] is higher in phosphorylation enrichment: 0.575 for the first, 2.21 for the second.

First: YSTDCYRVGGH [NTRK2_Y707_Y706C]
Second: EAESWYQTKFE [KRT75_Y342_YF]
The phosphorylation enrichment of the first is lower: 0.639 for the first, 0.906 for the second.

Going from NTGDYYDLYGG [PTPN11_Y63] to VVFIKYLPEWT [PSEN1_Y240_L235V], the phosphorylation enrichment falls from 4.07 to 1.22.

First: GPGGDYAAMGA [ERBB3_Y1276]
Second: KQLFAYKMLMA [TMC2_Y209_YF]
The phosphorylation enrichment of the first is lower: 0.604 for the first, 0.773 for the second.

Compared with HDRNTYEKFLE [TF_Y666_G671E_YF], LDFNEYFRDLN [HPRT1_Y198_YF] is higher in phosphorylation enrichment: 0.859 for the first, 0.998 for the second.

Going from PEAALYGRFTI [FYN_Y440] to VNTTLYEKFTF [TEK_Y1108_YF], the phosphorylation enrichment falls from 1.38 to 0.891.

Work on DKPENYRRLDI [VHL_Y175_V170D] yielded a phosphorylation enrichment of 0.551.

molecular target: MERTK (UniProt Q12866); assay: as above
Sequence (Q12866 whole entry, looked up): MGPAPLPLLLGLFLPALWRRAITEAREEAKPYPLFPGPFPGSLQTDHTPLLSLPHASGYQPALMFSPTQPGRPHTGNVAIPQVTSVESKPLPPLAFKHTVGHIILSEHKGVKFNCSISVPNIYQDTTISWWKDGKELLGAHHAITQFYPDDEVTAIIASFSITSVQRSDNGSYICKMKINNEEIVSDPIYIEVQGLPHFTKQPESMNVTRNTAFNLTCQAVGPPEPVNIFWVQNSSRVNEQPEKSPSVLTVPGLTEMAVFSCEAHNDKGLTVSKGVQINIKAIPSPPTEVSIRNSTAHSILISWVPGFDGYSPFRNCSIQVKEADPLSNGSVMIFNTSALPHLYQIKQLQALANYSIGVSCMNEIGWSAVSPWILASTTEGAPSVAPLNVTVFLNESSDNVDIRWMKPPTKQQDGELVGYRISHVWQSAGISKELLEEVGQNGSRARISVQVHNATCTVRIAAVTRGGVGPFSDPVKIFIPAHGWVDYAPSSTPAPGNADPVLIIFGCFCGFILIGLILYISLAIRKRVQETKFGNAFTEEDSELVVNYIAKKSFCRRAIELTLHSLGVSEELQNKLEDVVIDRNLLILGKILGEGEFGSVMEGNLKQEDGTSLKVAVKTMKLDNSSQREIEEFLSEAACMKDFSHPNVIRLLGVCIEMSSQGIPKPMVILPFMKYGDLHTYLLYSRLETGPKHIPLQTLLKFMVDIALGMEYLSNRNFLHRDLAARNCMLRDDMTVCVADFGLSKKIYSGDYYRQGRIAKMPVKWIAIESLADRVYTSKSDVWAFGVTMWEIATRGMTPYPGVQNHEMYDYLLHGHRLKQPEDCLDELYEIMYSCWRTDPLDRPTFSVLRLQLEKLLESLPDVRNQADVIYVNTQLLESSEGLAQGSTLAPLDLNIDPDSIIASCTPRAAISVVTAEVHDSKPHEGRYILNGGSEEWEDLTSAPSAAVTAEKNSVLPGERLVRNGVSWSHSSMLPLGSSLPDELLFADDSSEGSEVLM

Compared with EVVGGYSVHNA [MLH1_Y183_R182G], DLFRLYICVKE [ARID1B_Y1091_V1092I] is higher in phosphorylation enrichment: 0.369 for the first, 0.391 for the second.

Compared with ALHHPYGCDVE [ABL2_Y80_R78H], MSRDVYSIDYY [NTRK2_Y702_T704I] is higher in phosphorylation enrichment: 0.44 for the first, 7.16 for the second.

Compared with KSDVMYTDWKK [ORM1_Y175_V174M], PRLLRYLQLDF [ASB10_Y457] is higher in phosphorylation enrichment: 0.562 for the first, 0.701 for the second.

Going from QRALLYEDALF [UNC13D_Y56_YF] to IKKLIYVYLVI [JAGN1_Y42_H44Y], the phosphorylation enrichment falls from 4.86 to 0.427.

First: SEHLTYLEFKS [RASGRP1_Y215]
Second: SVCPDYDLCSV [SQSTM1_Y148]
The phosphorylation enrichment of the first is lower: 0.459 for the first, 0.524 for the second.

First: ITVPAYFNDLQ [HSPA9_Y196_S200L]
Second: IAKNPYDPPGR
The phosphorylation enrichment of the first is higher: 0.431 for the first, 0.426 for the second.

First: KPEKTYGLRKE [CEP43_Y267]
Second: ASMAKYFASGI [ACADSB_Y372_E376G_YF]
The phosphorylation enrichment of the first is higher: 0.441 for the first, 0.407 for the second.

Compared with QGCGIYKDYYR [PLA2G2D_Y82_S80G], APQFTYAQGGQ [FLNA_Y1763_YF] is lower in phosphorylation enrichment: 0.773 for the first, 0.26 for the second.

First: RRSQSYIPTSG [PLEKHA2_Y185]
Second: SAEEDYKADAK [KCNT1_Y876_M877K]
The phosphorylation enrichment of the first is higher: 0.59 for the first, 0.497 for the second.

First: FSQNIYIQNRN [PKP2_Y631_YF]
Second: TRFDEYLEVTK [MAP1A_Y2217_H2214Y_YF]
The phosphorylation enrichment of the first is lower: 0.383 for the first, 0.819 for the second.

First: YEREQYADRAR [RBM4_Y355]
Second: LNWIYYKDQTG [RS1_Y166]
The phosphorylation enrichment of the first is lower: 0.29 for the first, 0.787 for the second.

First: YSTDCYRVGGH [NTRK2_Y707_Y706C]
Second: EAESWYQTKFE [KRT75_Y342_YF]
The phosphorylation enrichment of the first is higher: 3.67 for the first, 0.436 for the second.

First: NTGDYYDLYGG [PTPN11_Y63]
Second: VVFIKYLPEWT [PSEN1_Y240_L235V]
The phosphorylation enrichment of the first is higher: 4.18 for the first, 0.343 for the second.

Going from GPGGDYAAMGA [ERBB3_Y1276] to KQLFAYKMLMA [TMC2_Y209_YF], the phosphorylation enrichment falls from 0.511 to 0.386.

First: HDRNTYEKFLE [TF_Y666_G671E_YF]
Second: LDFNEYFRDLN [HPRT1_Y198_YF]
The phosphorylation enrichment of the first is higher: 0.848 for the first, 0.423 for the second.

Going from PEAALYGRFTI [FYN_Y440] to VNTTLYEKFTF [TEK_Y1108_YF], the phosphorylation enrichment rises from 1.9 to 4.71.

With DKPENYRRLDI [VHL_Y175_V170D] the phosphorylation enrichment was 0.402.

test system: c-Abl (mouse); assay: as above

First: EVVGGYSVHNA [MLH1_Y183_R182G]
Second: DLFRLYICVKE [ARID1B_Y1091_V1092I]
The phosphorylation enrichment of the first is lower: 0.643 for the first, 0.997 for the second.

First: ALHHPYGCDVE [ABL2_Y80_R78H]
Second: MSRDVYSIDYY [NTRK2_Y702_T704I]
The phosphorylation enrichment of the first is higher: 0.681 for the first, 0.538 for the second.

Going from KSDVMYTDWKK [ORM1_Y175_V174M] to PRLLRYLQLDF [ASB10_Y457], the phosphorylation enrichment rises from 0.689 to 1.04.

First: QRALLYEDALF [UNC13D_Y56_YF]
Second: IKKLIYVYLVI [JAGN1_Y42_H44Y]
The phosphorylation enrichment of the first is lower: 0.878 for the first, 0.955 for the second.

First: SEHLTYLEFKS [RASGRP1_Y215]
Second: SVCPDYDLCSV [SQSTM1_Y148]
The phosphorylation enrichment of the first is higher: 1.09 for the first, 0.98 for the second.

Going from ITVPAYFNDLQ [HSPA9_Y196_S200L] to IAKNPYDPPGR, the phosphorylation enrichment falls from 0.766 to 0.455.

Going from KPEKTYGLRKE [CEP43_Y267] to ASMAKYFASGI [ACADSB_Y372_E376G_YF], the phosphorylation enrichment falls from 0.782 to 0.574.

First: QGCGIYKDYYR [PLA2G2D_Y82_S80G]
Second: APQFTYAQGGQ [FLNA_Y1763_YF]
The phosphorylation enrichment of the first is higher: 1.18 for the first, 0.421 for the second.

Compared with RRSQSYIPTSG [PLEKHA2_Y185], SAEEDYKADAK [KCNT1_Y876_M877K] is higher in phosphorylation enrichment: 0.497 for the first, 0.831 for the second.

Going from FSQNIYIQNRN [PKP2_Y631_YF] to TRFDEYLEVTK [MAP1A_Y2217_H2214Y_YF], the phosphorylation enrichment rises from 0.459 to 0.731.

First: YEREQYADRAR [RBM4_Y355]
Second: LNWIYYKDQTG [RS1_Y166]
The phosphorylation enrichment of the first is lower: 0.531 for the first, 1.13 for the second.

First: YSTDCYRVGGH [NTRK2_Y707_Y706C]
Second: EAESWYQTKFE [KRT75_Y342_YF]
The phosphorylation enrichment of the first is higher: 0.79 for the first, 0.684 for the second.

First: NTGDYYDLYGG [PTPN11_Y63]
Second: VVFIKYLPEWT [PSEN1_Y240_L235V]
The phosphorylation enrichment of the first is higher: 1.02 for the first, 0.81 for the second.

Going from GPGGDYAAMGA [ERBB3_Y1276] to KQLFAYKMLMA [TMC2_Y209_YF], the phosphorylation enrichment rises from 0.572 to 0.711.

First: HDRNTYEKFLE [TF_Y666_G671E_YF]
Second: LDFNEYFRDLN [HPRT1_Y198_YF]
The phosphorylation enrichment of the first is lower: 0.561 for the first, 0.606 for the second.

Compared with PEAALYGRFTI [FYN_Y440], VNTTLYEKFTF [TEK_Y1108_YF] is lower in phosphorylation enrichment: 2.83 for the first, 0.976 for the second.

DKPENYRRLDI [VHL_Y175_V170D] was tested, and the phosphorylation enrichment was 0.39.
